Measured values from patent publication US20060257938A1, “Method of screening for drugs that block ligand binding to a lipid binding protein” (priority 2005, published 2006).
Several values for one entry are separate records, joined by “and”; a condition that tells them apart may be missing. Identical values can stand only once.

B1: 55K1, 72A (protein, listed as Rattus norvegicus)
chain: AFDGTWKVDRNENYEKFMEKMGINVVKRKLGAHDNLKLTITQEGNKFTVKESSNKRNIDVVFELGVDFAYSAADGTELTGTWTMEGNKLVGKFKRVDNGKELIAVREISGNELIQTYTYEGVEAKRIFKKE
modifications: PEPTIDE (1)...(131) wild-type rat intestinal fatty acid binding protein
B2: 55W2, 72A (protein, listed as Rattus norvegicus)
chain: AFDGTWKVDRNENYEKFMEKMGINVVKRKLGAHDNLKLTITQEGNKFTVKESSNWRNIDVVFELGVDFAYSAADGTELTGTWTMEGNKLVGKFKRVDNGKELIAVREISGNELIQTYTYEGVEAKRIFKKE
modifications: PEPTIDE (1)...(131) wild-type rat intestinal fatty acid binding protein
B3: 55Y3, 72A (protein, listed as Rattus norvegicus)
chain: AFDGTWKVDRNENYEKFMEKMGINVVKRKLGAHDNLKLTITQEGNKFTVKESSNYRNIDVVFELGVDFAYSAADGTELTGTWTMEGNKLVGKFKRVDNGKELIAVREISGNELIQTYTYEGVEAKRIFKKE
modifications: PEPTIDE (1)...(131) wild-type rat intestinal fatty acid binding protein
B4: 55T1, 72A (protein, listed as Rattus norvegicus)
chain: AFDGTWKVDRNENYEKFMEKMGINVVKRKLGAHDNLKLTITQEGNKFTVKESSNTRNIDVVFELGVDFAYSAADGTELTGTWTMEGNKLVGKFKRVDNGKELIAVREISGNELIQTYTYEGVEAKRIFKKE
modifications: PEPTIDE (1)...(131) wild-type rat intestinal fatty acid binding protein
B5: 60C, 72A (protein, listed as Rattus norvegicus)
chain: AFDGTWKVDRNENYEKFMEKMGINVVKRKLGAHDNLKLTITQEGNKFTVKESSNFRNIDCVFELGVDFAYSAADGTELTGTWTMEGNKLVGKFKRVDNGKELIAVREISGNELIQTYTYEGVEAKRIFKKE
modifications: PEPTIDE (1)...(131) wild-type rat intestinal fatty acid binding protein
B6: 55S1, 72A (protein, listed as Rattus norvegicus)
chain: AFDGTWKVDRNENYEKFMEKMGINVVKRKLGAHDNLKLTITQEGNKFTVKESSNSRNIDVVFELGVDFAYSAADGTELTGTWTMEGNKLVGKFKRVDNGKELIAVREISGNELIQTYTYEGVEAKRIFKKE
modifications: PEPTIDE (1)...(131) wild-type rat intestinal fatty acid binding protein
B7: 55Q1, 72A (protein, listed as Rattus norvegicus)
chain: AFDGTWKVDRNENYEKFMEKMGINVVKRKLGAHDNLKLTITQEGNKFTVKESSNQRNIDVVFELGVDFAYSAADGTELTGTWTMEGNKLVGKFKRVDNGKELIAVREISGNELIQTYTYEGVEAKRIFKKE
modifications: PEPTIDE (1)...(131) wild-type rat intestinal fatty acid binding protein
B8: 55N1, 72A (protein, listed as Rattus norvegicus)
chain: AFDGTWKVDRNENYEKFMEKMGINVVKRKLGAHDNLKLTITQEGNKFTVKESSNNRNIDVVFELGVDFAYSAADGTELTGTWTMEGNKLVGKFKRVDNGKELIAVREISGNELIQTYTYEGVEAKRIFKKE
modifications: PEPTIDE (1)...(131) wild-type rat intestinal fatty acid binding protein
B9: 55M1, 72A (protein, listed as Rattus norvegicus)
chain: AFDGTWKVDRNENYEKFMEKMGINVVKRKLGAHDNLKLTITQEGNKFTVKESSNMRNIDVVFELGVDFAYSAADGTELTGTWTMEGNKLVGKFKRVDNGKELIAVREISGNELIQTYTYEGVEAKRIFKKE
modifications: PEPTIDE (1)...(131) wild-type rat intestinal fatty acid binding protein
B10: 55L1, 72A (protein, listed as Rattus norvegicus)
chain: AFDGTWKVDRNENYEKFMEKMGINVVKRKLGAHDNLKLTITQEGNKFTVKESSNLRNIDVVFELGVDFAYSAADGTELTGTWTMEGNKLVGKFKRVDNGKELIAVREISGNELIQTYTYEGVEAKRIFKKE
modifications: PEPTIDE (1)...(131) wild-type rat intestinal fatty acid binding protein
B11: 55R1, 72A (protein, listed as Rattus norvegicus)
chain: AFDGTWKVDRNENYEKFMEKMGINVVKRKLGAHDNLKLTITQEGNKFTVKESSNRRNIDVVFELGVDFAYSAADGTELTGTWTMEGNKLVGKFKRVDNGKELIAVREISGNELIQTYTYEGVEAKRIFKKE
modifications: PEPTIDE (1)...(131) wild-type rat intestinal fatty acid binding protein
B12: 55P1, 72A (protein, listed as Rattus norvegicus)
chain: AFDGTWKVDRNENYEKFMEKMGINVVKRKLGAHDNLKLTITQEGNKFTVKESSNPRNIDVVFELGVDFAYSAADGTELTGTWTMEGNKLVGKFKRVDNGKELIAVREISGNELIQTYTYEGVEAKRIFKKE
modifications: PEPTIDE (1)...(131) wild-type rat intestinal fatty acid binding protein
B13: 60A, 72A (protein, listed as Rattus norvegicus)
chain: AFDGTWKVDRNENYEKFMEKMGINVVKRKLGAHDNLKLTITQEGNKFTVKESSNFRNIDAVFELGVDFAYSAADGTELTGTWTMEGNKLVGKFKRVDNGKELIAVREISGNELIQTYTYEGVEAKRIFKKE
modifications: PEPTIDE (1)...(131) wild-type rat intestinal fatty acid binding protein

Tests used:
Format in all cases: binding
Conditions in all cases: response relative to ADIFAB2
[1] = Probe fluorescence ratio response to oleic acid relative to ADIFAB2
Procedure, shortened: (§1)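 Fluorescently labeled rat intestinal FABP variants were read at two emission wavelengths, near the unbound maximum (about 420 to 480 nm) and the FFA-bound maximum (about 495 to 580 nm). R = Fλ1/Fλ2 after subtracting probe-free intensity; ΔR = R+agent − R0, normalized to ADIFAB2 (rI-FABP-L72A).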

[2] = Probe fluorescence ratio response to linoleic acid relative to ADIFAB2
Procedure, shortened: as §1

[3] = Probe fluorescence ratio response to arachidonic acid relative to ADIFAB2
Procedure, shortened: as §1

[4] = Probe fluorescence ratio response to palmitic acid relative to ADIFAB2
Procedure, shortened: as §1

[5] = Probe fluorescence ratio response to linolenic acid relative to ADIFAB2
Procedure, shortened: as §1

Molecule | DR/DR OA [1] | DR/DR LA [2] | DR/DR AA ([3]; Arachidonic acid) | DR/DR PA [4] | DR/DR LNA [5] | DR/DR AA ([3]; arachidonic acid)
B1 | 0.30 | 0.34 | 0.32 | 0.27 | 0.35 | 
B2 | 0.70 | 0.79 | 0.77 | 0.63 | 0.82 | 
B3 | 0.33 | 0.32 | 0.47 | 0.25 | 0.34 | 
B4 | 1.28 | 1.25 | 1.26 | 1.12 | 1.27 | 
B5 | 1.34 | 1.33 | 1.30 | 1.04 | 1.36 | 
B6 | 0.41 | 0.42 | 0.48 | 0.41 | 0.43 | 
B7 | 0.54 | 0.47 | 0.60 | 0.43 | 0.49 | 
B8 | 0.27 | 0.29 | 0.34 | 0.22 | 0.30 | 
B9 | 1.41 | 0.97 | 1.40 | 0.84 | 1.42 | 
B10 | 0.82 | 0.71 | 0.86 | 0.63 | 0.72 | 
B11 | 0.39 | 0.41 | 0.40 | 0.30 | 0.37 | 
B12 | 0.93 | 1.05 | 1.01 | 0.54 | 0.96 | 
B13 | 0.94 and 0.936 | 0.98 and 0.977 | 0.79 | 0.74 and 0.742 | 0.94 and 0.938 | 0.787
